Measured values as given in patent US20070190056A1.

Target: recombinant myostatin
Assay: cell-based or functional assay

macrophage migration towards ZAMS medium (chemotaxis assay, FIG. 9): 20 fold
Substance: myostatin antagonist 350 (amino acids 267-350 of bovine myostatin) (from UniProt O18836 267-350) (peptide)
